First the molecules themselves.
B2: 16F12, anti-PCSK9 huIgG4 (antibody, V domains shown)
VH: QVHLVESGGGVVQPGRSLRLSCAASGFTFNSFGMHWVRQAPGKGLEWVALIWSDGSDEYYADSVKGRFTISRDNSKNTLYLQMNSLRAEDTAVYYCARAIAALYYYYGMDVWGQGTTVTVSS
VL: QSVLTQPPSVSAAPGQKVTISCSGSSSNIGNNFVSWYQQLPGTAPKLLIYDYNKRPSGIPDRFSGSKSGTSATLGITGLQTGDEADYYCGTWDSSLSAYVFGTGTRVTVLQ
notes: also called 16F12.1
B4: mouse PCSK9, 8xHIS tagged (enzyme, UniProt Q80W65 35-694, looked up)
chain: QDEDGDYEELMLALPSQEDGLADEAAHVATATFRRCSKEAWRLPGTYIVVLMEETQRLQIEQTAHRLQTRAARRGYVIKVLHIFYDLFPGFLVKMSSDLLGLALKLPHVEYIEEDSFVFAQSIPWNLERIIPAWHQTEEDRSPDGSSQVEVYLLDTSIQGAHREIEGRVTITDFNSVPEEDGTRFHRQASKCDSHGTHLAGVVSGRDAGVAKGTSLHSLRVLNCQGKGTVSGTLIGLEFIRKSQLIQPSGPLVVLLPLAGGYSRILNAACRHLARTGVVLVAAAGNFRDDACLYSPASAPEVITVGATNAQDQPVTLGTLGTNFGRCVDLFAPGKDIIGASSDCSTCFMSQSGTSQAAAHVAGIVARMLSREPTLTLAELRQRLIHFSTKDVINMAWFPEDQQVLTPNLVATLPPSTHETGGQLLCRTVWSAHSGPTRTATATARCAPEEELLSCSSFSRSGRRRGDWIEAIGGQQVCKALNAFGGEGVYAVARCCLVPRANCSIHNTPAARAGLETHVHCHQKDHVLTGCSFHWEVEDLSVRRQPALRSRRQPGQCVGHQAASVYASCCHAPGLECKIKEHGISGPSEQVTVACEAGWTLTGCNVLPGASLTLGAYSVDNLCVARVHDTARADRTSGEATVAAAICCRSRPSAKASWVQ
notes: also called mPCSK9-8xHIS; mPCSK9; not shown: 8xHIS tag

Assay [1] addresses B4. Briefly: SPR (Biacore 2000), antibody amine-coupled on CM5 chip, PCSK9 injected, pH 7.4; BIAcore (Table 7.1), not the assay of Table 8.2.
Assay [2] deals with B4. Nature of the assay: Biacore solution equilibrium assay: PCSK9 mixed with 21B12.1, free PCSK9 read on immobilised 21B12. For orientation: Surface plasmon resonance follows binding to a sensor surface in real time, without labels.
In assay [3] the target is B4. Briefly: SPR (Biacore 2000), antibody amine-coupled on CM5 chip, PCSK9 injected, pH 7.4.
Assay [4] has as its target B4. Nature of the assay: KinExA solution equilibrium titration; title: 100pM 16F12 + (1pM ~ 10nM) mPCSK9. For orientation: A kinetic exclusion assay measures how much of one partner remains free in solution.
In the next assay the target is furin (R&D Systems) (UniProt P09958 108-715, limits assumed). Briefly: competition ELISA: 0.4 ug/mL 11F1 pre-incubated with soluble proprotein convertase (furin inhibitor present), then added to plate-captured biotinylated PCSK9; OD450.
Chain of furin (R&D Systems) (P09958 108-715 limits assumed): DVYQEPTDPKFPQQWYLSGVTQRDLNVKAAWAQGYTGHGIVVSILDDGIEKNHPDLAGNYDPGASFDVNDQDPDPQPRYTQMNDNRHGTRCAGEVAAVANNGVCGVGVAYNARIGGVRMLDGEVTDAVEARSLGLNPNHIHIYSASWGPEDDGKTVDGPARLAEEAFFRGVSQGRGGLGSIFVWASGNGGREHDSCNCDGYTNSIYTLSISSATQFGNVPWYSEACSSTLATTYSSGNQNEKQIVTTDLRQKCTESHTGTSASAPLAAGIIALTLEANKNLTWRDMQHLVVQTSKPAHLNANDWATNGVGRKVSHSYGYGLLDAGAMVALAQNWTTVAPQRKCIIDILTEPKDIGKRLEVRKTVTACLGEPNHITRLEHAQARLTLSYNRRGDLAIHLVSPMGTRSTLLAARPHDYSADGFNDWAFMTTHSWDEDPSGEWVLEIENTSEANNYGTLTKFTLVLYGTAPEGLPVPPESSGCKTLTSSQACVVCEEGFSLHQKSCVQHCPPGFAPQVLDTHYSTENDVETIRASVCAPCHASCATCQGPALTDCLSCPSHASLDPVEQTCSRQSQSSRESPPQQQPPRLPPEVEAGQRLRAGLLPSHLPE
Assay [5] deals with T1, human PCSK9 (proprotein convertase subtilisin/kexin type 9), wild type (human, UniProt Q8NBP7 31-692).
T1 construct: also called hPCSK9; WT PCSK9
Briefly: competition ELISA: biotinylated WT PCSK9 (100 ng/mL) pre-incubated with 11F1, binding to captured LDLR; average of 3. (In general: An ELISA detects its analyte on a solid surface through an enzyme-linked reagent.)

In assay [6] the target is T2, human PCSK9 D374Y mutant (human, UniProt Q8NBP7 31-692, biotinylated (sites not given) in the ELISA formats).
T2 construct: also called D374Y PCSK9; huPCSK9 (D374Y)
Briefly: blocking ELISA: biotinylated D374Y PCSK9 (20 ng/mL) pre-incubated with 11F1, added to plate-captured LDLR; blocked ligand LDLR; streptavidin-HRP, OD450.

Assay [7] has as its target T2, human PCSK9 D374Y mutant. Nature of the assay: competition ELISA: biotinylated D374Y PCSK9 (20 ng/mL) pre-incubated with 11F1, binding to captured LDLR.
In assay [8] the target is T2, human PCSK9 D374Y mutant. Nature of the assay: competition ELISA: biotinylated D374Y PCSK9 (20 ng/mL) pre-incubated with 11F1, binding to captured LDLR; average of 3.
The target in assay [9] is T1, human PCSK9 (proprotein convertase …). Nature of the assay: blocking ELISA: biotinylated WT PCSK9 (100 ng/mL) pre-incubated with 11F1, added to plate-captured LDLR; blocked ligand LDLR; streptavidin-HRP, OD450.
Assay [10] has as its target T2, human PCSK9 D374Y mutant. Nature of the assay: cell-based or functional assay.
Assay [11] addresses T1, human PCSK9 (proprotein convertase …). Nature of the assay: cell-based or functional assay.
For assay [12] the target is unchanged. Briefly: competition ELISA: biotinylated WT PCSK9 (100 ng/mL) pre-incubated with 11F1, binding to captured LDLR.
A further assay addresses T3, 31H4, anti-PCSK9 huIgG4.
T3 construct: also called 31H4.1; 31H4 IgG4
Briefly: KinExA; mPCSK9 is varied, 31H4 is fixed at 100 pM; free 31H4.1 measured.

The assay “16F12, anti-PCSK9 huIgG4” has as its target B2. Nature of the assay: KinExA; mPCSK9 is varied, 16F12 is fixed at 100 pM; free 16F12 measured.

These results are taken from patent publication US20130064825A1 (Amgen, published 2013).

T3 sequence (VL, as listed by the source, chain 2 of 2, other chains not shown): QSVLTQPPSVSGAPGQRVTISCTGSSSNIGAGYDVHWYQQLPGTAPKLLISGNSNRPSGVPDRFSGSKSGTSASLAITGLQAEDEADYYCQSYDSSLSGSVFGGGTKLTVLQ

B1: 21B12, anti-PCSK9 huIgG4 (antibody, V domains shown)
VH: QVQLVQSGAEVKKPGASVKVSCKASGYTLTSYGISWVRQAPGQGLEWMGWVSFYNGNTNYAQKLQGRGTMTTDPSTSTAYMELRSLRSDDTAVYYCARGYGMDVWGQGTTVTVSS
VL: QSALTQPASVSGSPGQSITISCTGTSSDVGGYNSVSWYQQHPGKAPKLMIYEVSNRPSGVSNRFSGSKSGNTASLTISGLQAEDEADYYCNSYTSTSMVFGGGTKLTVLQ
notes: also called 21B12.1; 21B12 IgG4
The Kd is a measure of binding affinity in units of concentration. Regarding B1, the Kd is 460 nM in assay [1] and 17 nM in [2].

Consider B2, for which the Kd turned out to be 6.4 nM in assay [3] and 0.223 nM in assay [4].

B3: 11F1, anti-PCSK9 antibody (antibody, V domains shown)
VH: EVQLVESGGGLVQPGGSLRLSCAASGFTFSNYWMSWVRQAPGKGLEWVASIKQDGSEKYYVDSVKGRFAISRDNAKNSLFLQMNSLRAEDTAVYYCARDLVLMVYDIDYYYYGMDVWGQGTTVTVSS
VL: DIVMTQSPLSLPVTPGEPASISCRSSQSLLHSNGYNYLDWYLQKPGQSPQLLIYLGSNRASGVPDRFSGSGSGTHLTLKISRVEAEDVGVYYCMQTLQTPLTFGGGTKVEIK
notes: it was detected with anti-human Fc
A word on the IC50: it is the concentration needed to halve the response being measured. The low end stands for greater potency, the high end for weaker potency. Take B3: the binding result with furin (R&D Systems) is “no binding (tested: 20 ug/ml)”. Also, the IC50 was 5.9 nM in assay [5], 7.3 to 10.1 nM with human PCSK9 D374Y mutant [7], 9.1 nM with human PCSK9 D374Y mutant [8] and 4.4 to 8.1 nM in [12]. Moreover, the “IC50 (read off the curve)” value in the assay with human PCSK9 D374Y mutant [6] was ~10 nM; in [9], ~5 nM. Besides, the “EC50, LDL uptake in HepG2 cells (BODIPY-LDL)” value with human PCSK9 D374Y mutant [10] is 35.3 nM; in assay [11], 124 nM.

With B4, the “IC50 (read off the curve)” value with 31H4, anti-PCSK9 huIgG4 is ~0.6 nM; with 16F12, anti-PCSK9 huIgG4 it was ~0.4 nM.
